Values of other authors in patent US7550436B2, “Compositions containing peptide and electrolyte excretion promoter and foods containing the same” (Kracie Pharma, Ltd., priority 2000, dated 2009).
No end group written: not given here.

target: angiotensin converting enzyme (Homo sapiens, UniProt P12821); conditions: reported in JP-B-60-23085, JP-B-61-51562, JP-B-61-51564, JP-B-5-21092
Sequence (P12821 30-1306, species assumed): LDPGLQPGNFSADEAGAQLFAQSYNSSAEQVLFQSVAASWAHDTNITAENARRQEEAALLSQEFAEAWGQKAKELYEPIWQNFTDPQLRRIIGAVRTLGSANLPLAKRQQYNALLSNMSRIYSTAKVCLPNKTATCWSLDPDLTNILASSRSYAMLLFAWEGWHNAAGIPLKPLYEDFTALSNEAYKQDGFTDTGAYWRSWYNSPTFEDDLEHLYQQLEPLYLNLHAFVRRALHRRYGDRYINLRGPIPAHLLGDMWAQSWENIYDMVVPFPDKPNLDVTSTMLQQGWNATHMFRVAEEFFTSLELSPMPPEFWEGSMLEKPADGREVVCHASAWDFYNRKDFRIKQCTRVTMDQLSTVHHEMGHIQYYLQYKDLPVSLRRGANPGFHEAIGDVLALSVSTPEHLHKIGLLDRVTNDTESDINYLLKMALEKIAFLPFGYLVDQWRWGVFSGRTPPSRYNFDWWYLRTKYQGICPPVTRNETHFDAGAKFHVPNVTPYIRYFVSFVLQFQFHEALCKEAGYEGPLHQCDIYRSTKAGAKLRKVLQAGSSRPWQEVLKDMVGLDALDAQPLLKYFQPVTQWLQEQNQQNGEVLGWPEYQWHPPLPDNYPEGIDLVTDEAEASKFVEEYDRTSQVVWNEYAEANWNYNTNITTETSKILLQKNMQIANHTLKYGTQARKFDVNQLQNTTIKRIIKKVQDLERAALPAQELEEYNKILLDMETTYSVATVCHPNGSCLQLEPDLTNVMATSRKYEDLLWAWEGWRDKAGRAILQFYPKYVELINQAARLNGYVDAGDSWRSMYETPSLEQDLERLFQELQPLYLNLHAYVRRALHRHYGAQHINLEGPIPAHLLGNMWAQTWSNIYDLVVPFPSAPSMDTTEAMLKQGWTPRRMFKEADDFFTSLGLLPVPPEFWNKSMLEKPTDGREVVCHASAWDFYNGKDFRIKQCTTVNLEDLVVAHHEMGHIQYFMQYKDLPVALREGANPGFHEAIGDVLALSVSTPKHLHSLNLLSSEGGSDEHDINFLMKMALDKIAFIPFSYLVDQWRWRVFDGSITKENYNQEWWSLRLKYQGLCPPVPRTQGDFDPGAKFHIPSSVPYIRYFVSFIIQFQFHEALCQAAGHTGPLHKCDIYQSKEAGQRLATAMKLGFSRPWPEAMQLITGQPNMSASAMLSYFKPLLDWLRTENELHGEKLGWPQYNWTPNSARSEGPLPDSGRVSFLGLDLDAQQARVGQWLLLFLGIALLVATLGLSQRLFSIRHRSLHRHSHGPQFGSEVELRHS

Row | inhibitory activity to angiotensin converting enzyme (ACE) | Substance
1 | inhibitory activity | AVPYPQR [Cβ7, ID No. 2, casein-origin peptide]
2 | inhibitory activity | FFVAPFPEVFGK [Example C12, ID No. 1, casein-origin peptide]
3 | inhibitory activity | TTMPLW [Example C6, ID No. 3, casein-origin peptide]
